Publication PMC5818509, “Crystal structure of the hydroxylaminopurine resistance protein, YiiM, and its putative molybdenum cofactor-binding catalytic site” (Scientific Reports, 2018)

Biological target: the molecule itself
Experiment: SEC; gel filtration, Superdex 200 10/300, room temperature, 20 mM Tris pH 8.0, 150 mM NaCl, 5 mM β-mercaptoethanol; BL21-expressed and TP1000-expressed proteins

B1: Escherichia coli YiiM (natural protein)
chain: MRYPVDVYTGKIQAYPEGKPSAIAKIQVDGELMLTELGLEGDEQAEKKVHGGPDRALCHYPREHYLYWAREFPEQAELFVAPAFGENLSTDGLTESNVYMGDIFRWGEALIQVSQPRSPCYKLNYHFDISDIAQLMQNTGKVGWLYSVIAPGKVSADAPLELVSRVSDVTVQEAAAIAWHMPFDDDQYHRLLSAAGLSKSWTRTMQKRRLSGKIEDFSRRLWGK
notes: YiiM, a MOSC family protein of Escherichia coli; gene amplified by PCR from E. coli genomic DNA; calculated molecular weight 25.9 kDa; The BL21- and the TP1000-expressed protein are written as one molecule (both behaved alike); the crystal was grown from the TP1000-expressed protein; also called ecYiiM; ecYiiM^Pi (phosphate complex in the crystal); source: E. coli BL21 (DE3) (pET49b) and E. coli …
stoichiometry N: 2
